Several values for one entry are separate records, joined by “and”; a condition that tells them apart may be missing. Equal values may be shown once. Read-outs that look alike come from different tables or passages of the source.
Assays:
[1] = target: T1, norovirus GII.17 Kawasaki308 P domain (norovirus GII.17 Kawasaki308); assay: ITC, nanobody into P domain, 25 C
T1 construct: also called GII.17 P domain
T1 chain: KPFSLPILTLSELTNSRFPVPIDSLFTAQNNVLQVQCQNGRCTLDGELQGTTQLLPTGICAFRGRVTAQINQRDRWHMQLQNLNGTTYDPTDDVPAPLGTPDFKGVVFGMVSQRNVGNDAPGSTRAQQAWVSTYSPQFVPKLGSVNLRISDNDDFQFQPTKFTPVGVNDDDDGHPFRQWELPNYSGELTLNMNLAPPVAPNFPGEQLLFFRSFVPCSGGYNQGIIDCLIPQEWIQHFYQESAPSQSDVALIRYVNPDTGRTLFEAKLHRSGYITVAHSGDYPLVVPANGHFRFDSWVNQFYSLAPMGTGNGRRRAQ
Experimental: (§1) Isothermal calorimetry (ITC) experiments were done using an ITC-200 (Malvern). Samples were prepared in PBS and filtered prior to the experiments. […] Injections were performed until saturation was achieved. To correct for heats of dilution from titrants control experiments were performed by titrating nanobodies into PBS. The heat associated with the control titration was subtracted from raw binding data prior to fitting. The data was fitted using a single set-binding model (Origin 7.0 software). Nanobody binding sites on the P domains were assumed to be identical. All ITC experiments were performed in triplicate with the average and standard deviation calculated.

[2] = target: T2, norovirus GII.17 Kawasaki308 virus-like particles (norovirus GII.17 Kawasaki308); assay: direct ELISA on coated VLPs
T2 construct: also called GII.17 Kawasaki308 VLPs; GII.17 VLPs
T2 chain: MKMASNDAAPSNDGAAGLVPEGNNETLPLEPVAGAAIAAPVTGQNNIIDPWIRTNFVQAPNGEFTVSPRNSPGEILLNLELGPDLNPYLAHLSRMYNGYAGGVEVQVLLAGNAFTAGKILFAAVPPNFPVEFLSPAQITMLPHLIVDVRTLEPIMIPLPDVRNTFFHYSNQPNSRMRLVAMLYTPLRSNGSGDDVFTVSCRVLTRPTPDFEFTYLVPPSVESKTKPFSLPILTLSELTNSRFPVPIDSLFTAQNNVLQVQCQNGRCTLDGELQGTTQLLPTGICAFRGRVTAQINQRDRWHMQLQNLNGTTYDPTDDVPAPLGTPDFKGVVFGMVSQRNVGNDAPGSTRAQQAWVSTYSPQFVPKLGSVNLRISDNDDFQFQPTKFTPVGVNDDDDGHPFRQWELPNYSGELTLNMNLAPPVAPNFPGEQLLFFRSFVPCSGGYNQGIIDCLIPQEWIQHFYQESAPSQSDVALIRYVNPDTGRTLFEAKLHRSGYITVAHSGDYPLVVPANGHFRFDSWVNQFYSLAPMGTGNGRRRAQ

[3] = target: T3, norovirus GII.10 Vietnam 026 virus-like particles (norovirus GII.10 Vietnam 026); assay: direct ELISA on coated VLPs, heat map of OD492
T3 construct: also called GII.10 VLPs
T3 chain: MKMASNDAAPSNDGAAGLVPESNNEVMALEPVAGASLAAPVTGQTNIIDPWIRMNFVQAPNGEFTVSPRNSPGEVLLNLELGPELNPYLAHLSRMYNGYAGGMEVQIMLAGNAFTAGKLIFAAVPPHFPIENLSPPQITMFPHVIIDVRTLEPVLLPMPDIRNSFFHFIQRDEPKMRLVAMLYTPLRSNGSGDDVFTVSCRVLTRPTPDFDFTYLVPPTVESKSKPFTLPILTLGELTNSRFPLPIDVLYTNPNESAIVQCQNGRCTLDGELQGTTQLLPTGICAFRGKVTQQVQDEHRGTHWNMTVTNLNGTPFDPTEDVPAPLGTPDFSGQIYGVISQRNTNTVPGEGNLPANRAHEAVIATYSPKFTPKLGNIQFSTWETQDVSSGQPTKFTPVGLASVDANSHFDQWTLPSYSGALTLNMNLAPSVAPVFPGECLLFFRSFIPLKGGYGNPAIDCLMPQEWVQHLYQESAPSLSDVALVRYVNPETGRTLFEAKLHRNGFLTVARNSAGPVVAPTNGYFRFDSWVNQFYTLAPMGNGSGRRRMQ

[4] = target: T4, norovirus GII.4 Sydney-2012 virus-like particles (norovirus GII.4 Sydney-2012, UniProt P54635 1-538); assay: direct ELISA on coated VLPs, heat map of OD492
T4 construct: also called GII.4 Sydney-2012 VLPs; GII.4 VLPs
T4 chain: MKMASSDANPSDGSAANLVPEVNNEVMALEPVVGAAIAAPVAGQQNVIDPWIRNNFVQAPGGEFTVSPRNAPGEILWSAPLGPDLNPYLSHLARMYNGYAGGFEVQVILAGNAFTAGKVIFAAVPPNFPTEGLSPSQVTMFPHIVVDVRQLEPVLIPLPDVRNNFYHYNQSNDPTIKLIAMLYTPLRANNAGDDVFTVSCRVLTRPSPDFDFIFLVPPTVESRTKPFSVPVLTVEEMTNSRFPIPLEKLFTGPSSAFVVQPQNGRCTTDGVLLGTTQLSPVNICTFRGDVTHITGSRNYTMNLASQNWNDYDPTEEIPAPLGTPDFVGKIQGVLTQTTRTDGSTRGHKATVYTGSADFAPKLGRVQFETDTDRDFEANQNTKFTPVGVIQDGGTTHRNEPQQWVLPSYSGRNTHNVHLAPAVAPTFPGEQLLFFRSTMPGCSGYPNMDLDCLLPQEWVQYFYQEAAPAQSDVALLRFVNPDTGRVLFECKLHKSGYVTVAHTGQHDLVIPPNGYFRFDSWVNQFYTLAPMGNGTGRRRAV

[5] = target: T2, norovirus GII.17 Kawasaki308 virus-like …; assay: blocking ELISA: VLPs pre-incubated with nanobody, attachment to PGM (HBGA) coated plate
[6] = target: T5, norovirus GII.4 Sydney-2012 P domain (norovirus GII.4 Sydney-2012); assay: ITC, nanobody into P domain, 25 C
T5 construct: also called GII.4 P domain
T5 chain: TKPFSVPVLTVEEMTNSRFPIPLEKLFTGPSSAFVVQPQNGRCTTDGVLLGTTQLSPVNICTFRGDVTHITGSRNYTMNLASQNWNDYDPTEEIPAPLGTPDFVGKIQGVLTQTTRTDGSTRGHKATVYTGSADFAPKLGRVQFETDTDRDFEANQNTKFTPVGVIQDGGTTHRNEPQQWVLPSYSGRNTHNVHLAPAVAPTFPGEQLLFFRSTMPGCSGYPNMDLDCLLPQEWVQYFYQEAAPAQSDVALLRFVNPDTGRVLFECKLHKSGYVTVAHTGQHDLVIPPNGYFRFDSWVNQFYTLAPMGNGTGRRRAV
Experimental: as §1

[7] = target: T4, norovirus GII.4 Sydney-2012 virus-like …; assay: direct ELISA on coated VLPs
[8] = target: T4, norovirus GII.4 Sydney-2012 virus-like …; assay: direct ELISA, VLPs coated at 2 µg/mL, His-tagged nanobody detected with anti-His-HRP, OD490
[9] = target: T3, norovirus GII.10 Vietnam 026 virus-like …; assay: direct ELISA on coated VLPs, heat map of OD492
[10] = target: T2, norovirus GII.17 Kawasaki308 virus-like …; assay: direct ELISA on coated VLPs, heat map of OD492
[11] = target: T4, norovirus GII.4 Sydney-2012 virus-like …; assay: blocking ELISA: VLPs pre-incubated with nanobody, attachment to PGM (HBGA) coated plate

B1: NB-2 single domain antibody (VHH)
VHH: QVQLQESGGGLVQAGGSLRLSCAASGRFFSSYAMGWFRQAPGKEREFVAAISWSGGSTYYADSVKGRFTTSRDNAKNTVYLLMNSLKPEDTAVYYCAAAREGAYYPDSYYRTVRYDYWGQGTQVTVSS
notes: also called GII.17 nanobody; not shown: C-terminal His tag ('His-tagged nanobodies')
[1]
  +TΔS: 6.14 kcal/mol
  Kd: 7.5 nM
  ΔG: -11.1 kcal/mol
  ΔH: -17.2 kcal/mol
[2]
  nanobody concentration at the cut-off (OD490 0.15): 0.78 µg/mL
[3]
  binding result: no binding
[4]
  binding result: no binding
[5]
  IC50: 0.85 µg/mL and 0.84 µg/mL

B2: NB-76 single domain antibody (VHH, not shown: small tags and cut ends)
VHH: QVQLQESGGGLVQAGGSLRLSCAASGTIFSIDAFGWYRQAPGKQREWVAGITSGSSTIYADFVKGRFTISRDNAKNTVFLQMNSLKPEDTAVYYCNRAKPPTYYSLEPWGKGTQVTVSS
notes: also called GII.4 nanobody
[6]
  +TΔS: 2.22 kcal/mol
  Kd: 56.7 nM
  ΔG: -9.89 kcal/mol
  ΔH: -12.1 kcal/mol
[7]
  nanobody concentration at the cut-off (OD490 0.15): 0.38 µg/mL
[8]
  EC50 (read off the curve): ~2 µg/mL
[9]
  binding result: no binding
[10]
  binding result: no binding
[11]
  IC50: 1.42 µg/mL

B3: NB-45 single domain antibody (VHH)
VHH: QVQLQESGGGLVQAGGSLRLSCTVSGRTDSESTMGWFRQAAGKGREFVAAMNWRYATTYHTDSVKGRFTISKDSAKNTMYLQMNSLKPEDTAVYYCAHRYIYGSLSDSGSYDNWGQGTQVTVSS
notes: as for B1
[1]
  +TΔS: -4.4 kcal/mol
  Kd: 101 nM
  ΔG: -9.82 kcal/mol
  ΔH: -5.43 kcal/mol
[3]
  binding result: no binding
[4]
  binding result: no binding
[5]
  IC50: 0.46 µg/mL

B4: NB-7 single domain antibody (VHH)
VHH: QVQLQESGGGLVQAGGSLRLSCAASGRTFSSYRMGWYRQAPGKEREFVAAITGSGDSTNYADSVKGRFTVSGNSARNLVYLQMNSLKPEDTAVYLCVAYRTGGPPQWGQGTQVTVSS
notes: as for B1
[1]
  +TΔS: 10.2 kcal/mol
  Kd: 40.9 nM
  ΔG: -10.1 kcal/mol
  ΔH: -20.3 kcal/mol
[2]
  nanobody concentration at the cut-off (OD490 0.15): 1.56 µg/mL
[3]
  binding result: no binding
[4]
  binding result: no binding
[5]
  IC50: 0.88 µg/mL

From patent publication US20260265349A1 (GRIFFITH UNIVERSITY, published 2026)
